The values that follow come from the nanobody polyreactivity screen of Harvey et al. (2022).

The nature of this data set: yeast display, Sf9 membrane polyspecificity reagent, FACS + sequencing; frameworks hold sequencing errors. In a few lines:
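Synthetic nanobody libraries on Saccharomyces cerevisiae BJ5465 were galactose-induced for 36–48 hours, stained 1 hour at 4 °C with 10% biotinylated, detergent-solubilized Sf9 membrane reagent and enriched on streptavidin microbeads. FACS then separated cells into low and high (top ~1%) gates by anti-HA (expression) and streptavidin (reagent binding) fluorescence. Genes were colony-PCR amplified, MiSeq 2 × 250 sequenced and CDR-length filtered. A clone's polyreactivity label is that of its gate of origin.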
Turning to “QVQLVESGGGLVQAGGSLRLSCAASGFIFAIYAMGWYRQAPGKERELVAAISSSGGSTYYADSVKGRFTISRDNAKNTVYLQMNSLKPEDTAVYYCNADWSLYWLDYWGQGTQVTVSS”, the “polyreactivity (PSR sort gate)” value is “high polyreactivity”.

As to “QVQHVESRGGLVQAGGSLRLSCAASGLIFTCNAMGWYRQAPGKERELVAAISTGGSTSYADSVKGRFTIARDNAKNTVYLQMNSLKPEDTAVYYCARDSSIWSHGSWYDYWGQGTQVTVSS”, the “polyreactivity (PSR sort gate)” value is on record as “low polyreactivity”.

On to “QVQLVESGGGLVQAGGSHRLSCAASGSIFRSYAMGWYRQAPGKERELVASISRRGGSTYYADSVKGRFTISRDNAKNTVYLQMNSLIPEDTAVYYCAAVRYNSRVSTTPSEMYYWGQGTQVTVSS”, for which the “polyreactivity (PSR sort gate)” value is listed as “low polyreactivity”. In the case of “QVQLVESGGGLVQAGGSLRLSCAASGRIFDLYTMGWYRQAPGKERELVAAITSSGDSTYYADSVKGRFTISRDNAKNTVYLQMNSLKPEDTAVYYCAAESKYWEPWWYYYYDMDYWGQGTQVTVSS”, the “polyreactivity (PSR sort gate)” value was “low polyreactivity”. The value for “PVQLVESGGGLVQAGGSLRLSCPASGRILVGNAMGWYRQAPGKERELVAALTSSGDSTNYADSVKGRFTISRDNAKNTVYLQMNSLKPEDTAVYYCAAGSFGTSGFSDVIWEGDYWGQGTQVTVSS” was “low polyreactivity”; that for “QVQLVESGGGLVQAGGSLRLSCAASGSTFRFYAMGWYRQAPGKERELVAAISSGGSTYYADSVKGRFTISRDNAKNTVYLQMNSLKPEDTAVYYCNARLYYSTFRYYYWGQGTQVTVSS” was “high polyreactivity”. The value for “QVQLVESGGGLVQAGGSLRLSCAASGSILRGYAMGWYRQAPGKERELVAAITWNGGSTYYADSVKGRFTISRDNAKNTVYLQMNSLKPEDTAVYYCNRAIGPYSYPDNYWGQGTQVTVSS” was “high polyreactivity”; that for “QVQLVDSGGGLVQAGGSLRLSSAASGFTLLYNAMGSYRQAPGKERELVSTITGGGTTYADSVKGRFTISRDNAKNTVYLQMNSLKPEDTAVYYCATSRVWRLYRYLPQYRGYYYWGQGTQVTVSS” was “high polyreactivity”; that for “QVQLVESGGGLVQAGGSLRLSCAASGSTFYRYAMGWYRQAPGKERELVARITQNGGSTYYADSVKGRFTISRDNAKNTVYLQMNSLKPEDTAVYYCADRWISVLSYGKYDYWGQGTQVTVSS” was “high polyreactivity”. To “QVQLVESGGGLVQAGGSLRLSCAASGSTFYNNAMGWYRQAPGKERELVAAISNVSTYYADSVKGRFTISRDNAKNTVYLQMNSLKPEDTAVYYCAARVLLWYYSWRYYYWGQGTQVTVSS” belongs “low polyreactivity”; to “QVQLVESGGGLVQAGGSLRLSCAASGLIFGSNAMGWYRQAPGKERELVAAISSGGTTKYADSVKGRFTISRDNAKNTVYLQMNSLKPEDTAVYYCAAQDYSYTTRFQDDYWGQGTQVTVSS”, “low polyreactivity”; to “QVHLVESGGGLVQAGGSLRLSCAASGRNFGYYARGWYRQAPVKERELVAAIDSSGGDTYYADSVKGRFTISRDNAKNSVYVQMNSLKPEDTAVFYCAAEYVAQAGYGVDYWGQGTEVTVSS”, “low polyreactivity”. As to “QVQLVESGGGIVQAGGSLRLSCAASGNIFDDNAMGWYRQAPGKDRELVAAITSRGTRTYYADSVKGRFTISRDNAKNTVYLQMNSLKPEDTAVYYCAAGSYYWGQGSQVTVSS”, the “polyreactivity (PSR sort gate)” value is on record as “high polyreactivity”. The value for “QVQLVESGGGIVQAGGSLRLSCAASGYNFRSYVMGWYRQAPGKERELVAAISVSGGRTYYADSVKGRFTISRDNAKNTVYLQMNSLKPEDTAVYYCATDPYSYYWPSHMDYWGQGTQVTVSS” was “high polyreactivity”; that for “QVQLVESGGGLVQAGGSLRLICAASGRTFSTYAMGWYRQAPGKERELVAAISSGGGRTYYADSVKGRFTISRDNAKNTVYLQMNSLKPEDTAVYYCAADRYVRSRRSYEYWGQGTQVTVSS” was “low polyreactivity”; that for “QVQLVESGGGLVQAGGSLRLSCAASGRIFRGYAMGWYRQAPWKERELVAAISRSGGSTYYADSVKGRFTISRDNAKNTVYLQMNSLKPVDTAVYYCAAYTYSAGGYWGQGSQVTVSS” was “high polyreactivity”.
